# Numbered stars: 1 amine (or outer) side, 2 acyl side, 3 side chain; on linkers, the order of the positions; unused ones are H or OH. Bridge positions count the residues as written; N and C are the ends. Square brackets hold non-standard residues; d marks the D form. Primed or numbered codes have the meaning given here. Side chains are listed from the residue outwards. Peptide text beside a SMILES is read from it. * marks the point of attachment. FITC′ = 5(6)-fluoresceinthioureido on Lys N-epsilon (Lys(FITC)); Pro(trans-4-NH2) = O=C([C@@H]1C[C@@H](N[*:3])CN1[*:1])[*:2]; 5FAM = O=C1OC2(c3ccc(O)cc3Oc3cc(O)ccc32)c2ccc(C(=O)*)cc21; Dansyl = CN(C)c1cccc2c(S(=O)(=O)*)cccc12; 2Nal = N[C@@H](Cc1ccc2ccccc2c1)C(=O)O; Cit = NC(=O)NCCC[C@H](N)C(=O)O; Ahx = NCCCCCC(=O)O
# B1: Example 4 (peptide)
# peptide: cyclo(YR[Cit]CRG[dP]RRWCY[Cit]Q)
# modifications: disulfide 4-11; not fully specified (C-terminus)
# notes: the dye sits on the template; also called Ex. 4
# What was measured:
# HELA cells = experiment: Cytotoxicity assay (MTT reduction); format: cell-based; conditions: 48 hours incubation, peptide 12.5, 25 and 50 μM
# Method: The cytotoxicity of the peptides to HELA cells (Acc57) and COS-7 cells (CRL-1651) was determined using the MTT reduction assay [see ref. 5 and 6, below]. Briefly the method was as follows: HELA cells and COS-7 cells were seeded at 7.0·10^3 and, respectively, 4.5·10^3 cells per well and grown in 96-well microtiter plates for 24 hours at 37° C. at 5% CO2. At this point, time zero (Tz) was determined by MTT reduction (see below). The supernatant of the remaining wells was discarded, and fresh medium and the peptides in serial dilutions of 12.5, 25 and 50 μM were pipetted into the wells. Each peptide concentration was assayed in triplicate. Incubation of the cells was continued for 48 hours at 37° C. at 5% CO2. Wells were then washed once with PBS, and subsequently 100 μl MTT reagent (0.5 mg/mL in medium RPMI1640 and, respectively, DMEM) was added to the wells. This was incubated at 37° C. for 2 hours and subsequently the medium was aspirated and 100 μl isopropanol was added to each well. The absorbance at 595 nm of the solubilized product was measured (OD595peptide). For each concentration averages were calculated from triplicates. The percentage of growth was calculated as follows: (OD595peptide-OD595Tz-OD595Empty well)/(OD595Tz-OD595Empty well)×100% and was plotted for each peptide concentration. […]
# [1] = system: human red blood cells (hRBC); experiment: Hemolysis; format: cell-based; conditions: percent hemolysis; 100 μM peptide, 20% v/v hRBC, 1 hour at 37° C.
# Method: The peptides were tested for their hemolytic activity against human red blood cells (hRBC). Fresh hRBC were washed three times with phosphate buffered saline (PBS) by centrifugation for 10 min at 2000×g. Peptides at a concentration of 100 μM were incubated with 20% v/v hRBC for 1 hour at 37° C. The final erythrocyte concentration was approximately 0.9×10^9 cells per ml. A value of 0% resp. 100% cell lysis was determined by incubation of the hRBC in the presence of PBS alone and respectively 0.1% Triton X-100 in H2O. The samples were centrifuged and the supernatant was 20-fold diluted in PBS buffer and the optical density (OD) of the sample at […] was measured. The 100% lysis value (0D540H20) gave an OD540 of approximately 1.3-1.8. Percent hemolysis was calculated as follows: (0D540peptide/OD540H20)×100%.
# CXCR4 expressing cells = target: T1, CXCR4 expressing cells (Homo sapiens, UniProt P61073); experiment: FACS analysis, labeling of CXCR4 expressing cells; format: binding; conditions: FIG. 1; FACS fluorescence intensity at 530 nm, 10,000 cells
# T1 construct: expressed in transfected cells; host or cells: 300-19 cells (mouse pre-B), CXCR4 transfected
# Method: (§1) CXCR4 expressing cells (5×10^6/ml) [see references 1, 2 and 3, below] were incubated for 1 hour at 4° C. in a buffer containing HBSS+1% BSA with or without peptidomimetic-dye conjugates at the appropriate concentrations. After this incubation, the cells were washed twice in the same buffer and resuspended at 4×10^6/ml in PBS and kept on ice until measurements were made. All measurements were made on a BD FACSCalibur™ instrument [see ref 4 below] at a wavelength of 530 nm and a total of 10,000 events were counted for each condition. Unlabeled CXCR4 cells and untransfected 300-19 cells were used to establish an appropriate gate for scoring positive and negative events. Four-parameter curve fitting was made from plots of % gated cells vs. concentration of fluorescent compound using Grafit (Erithacus Software).
# (§2) The dotted line plot is the histogram obtained from the CXCR4 expressing cells incubated with the compound. The shift to the right on the intensity scale indicates a ˜5-fold increase in fluorescence with >80% of the cells being positive for peptidomimetic-dye conjugates.
# [2] = system: untransfected 300-19 cells; experiment: FACS analysis, untransfected cells (non-specific binding); design: species or system mouse; conditions: FIG. 1; FACS at 530 nm, 10,000 cells; background/non-specific binding
# Method: as §1, §2
# human CXCR4 [3] = target: T2, human CXCR4 (human, UniProt P61073 1-352); experiment: cell-based or functional assay
# human CXCR4 [4] = target: T2, human CXCR4; experiment: FACS at 530 nm, CXCR4 expressing cells against untransfected cells incubated with the dye conjugate
# Method: as §1, with “(5 ×10^6/ml)” for “(5×10^6/ml)”, “4 ×10^6/ml” for “4×10^6/ml”
# The dotted line plot is the histogram obtained from the CXCR4 expressing cells incubated with the compound. The shift to the right on the intensity scale indicates a ~5-fold increase in fluorescence with >80% of the cells being positive for peptidomimetic-dye conjugates.
# T2 sequence (P61073 whole entry): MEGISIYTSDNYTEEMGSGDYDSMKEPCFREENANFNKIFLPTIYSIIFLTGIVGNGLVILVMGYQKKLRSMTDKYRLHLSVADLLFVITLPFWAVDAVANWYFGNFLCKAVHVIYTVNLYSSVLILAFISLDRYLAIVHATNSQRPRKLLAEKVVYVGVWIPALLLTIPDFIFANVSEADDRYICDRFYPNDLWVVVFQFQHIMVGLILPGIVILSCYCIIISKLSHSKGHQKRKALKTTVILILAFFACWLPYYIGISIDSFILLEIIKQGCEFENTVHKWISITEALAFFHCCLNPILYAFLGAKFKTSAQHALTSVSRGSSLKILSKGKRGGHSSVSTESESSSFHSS
# T1 sequence (P61073 whole entry): as above
Molecule,IC50 (nM) Ca2+ assay (calcium mobilization induced by 10 nM SDF-1) (human CXCR4 [3]) [nM],further results
CN(C)c1cccc2c(S(=O)(=O)NCCCC[C@@H]3NC(=O)[C@H](CCCNC(N)=O)NC(=O)[C@H](Cc4ccc(O)cc4)NC(=O)[C@@H]4CSSC[C@H](NC(=O)[C@H](CCCNC(N)=O)NC(=O)[C@H](CCCNC(=N)N)NC(=O)[C@H](Cc5ccc(O)cc5)NC(=O)[C@@H]5CCCN5C(=O)[C@H]5CCCN5C3=O)C(=O)N[C@@H](CCCNC(=N)N)C(=O)NCC(=O)N3CCC[C@@H]3C(=O)N[C@@H](CCCNC(=N)N)C(=O)N[C@@H](CCCNC(=N)N)C(=O)N[C@@H](Cc3c[nH]c5ccccc35)C(=O)N4)cccc12 [Example 1] (cyclo(YR[Cit]CRG[dP]RRWCY[Cit]K(Dansyl)[dP]P); disulfide 4-11),,Cytotoxicity LC50/GI50 Hela cells (HELA cells): 31; Hemolysis at 100 μM [1]: 0
N=C(N)NCCC[C@@H]1NC(=O)[C@@H]2CSSC[C@H](NC(=O)[C@H](Cc3c[nH]c4ccccc34)NC(=O)[C@H](CCCNC(=N)N)NC(=O)[C@H](CCCNC(=N)N)NC(=O)[C@H]3CCCN3C(=O)CNC1=O)C(=O)N[C@@H](Cc1ccc(O)cc1)C(=O)N[C@@H](CCCNC(N)=O)C(=O)N[C@@H](CCC(N)=O)C(=O)N1CCC[C@@H]1C(=O)N1C[C@H](NC(=O)CCCCCNC(=O)c3ccc4c(c3)C(=O)OC43c4ccc(O)cc4Oc4cc(O)ccc43)C[C@H]1C(=O)N[C@@H](Cc1ccc(O)cc1)C(=O)N[C@@H](CCCNC(=N)N)C(=O)N[C@@H](CCCNC(N)=O)C(=O)N2 [Example 4] (cyclo(CRG[dP]RRWCY[Cit]Q[dP][Pro(trans-4-NH2)]([Ahx-5FAM])YR[Cit]); disulfide 1-8),,increase in fluorescence (CXCR4 expressing vs untransfected cells) (CXCR4 expressing cells): ~5 fold; cells binding compound (untransfected cells) [2]: 0.7%
"cyclo(YR[Cit]CRG[dP]RRWCYKQ) (disulfide 4-11; not fully specified (residue 13, C-terminus)) [Example 8]",9.7,
cyclo(LHTCRA[dP]RRYCYQK(FITC′)) (disulfide 4-11; not fully specified (C-terminus)) [Example 12],6.9,
"cyclo(YK[Cit]CRG[dP]RRWCY[Cit]Q) (disulfide 4-11; not fully specified (residue 2, C-terminus)) [Example 9]",500,
cyclo(YRYCRA[dP]FRFCYQK(FITC′)) (disulfide 4-11; not fully specified (C-terminus)) [Example 17],21.8,
cyclo(YHYCSA[dP]FRYCYQK(FITC′)) (disulfide 4-11; not fully specified (C-terminus)) [Example 18],> 500,
"cyclo(YRTCRG[dP]RR[2Nal]CY[Cit]K) (disulfide 4-11; not fully specified (residue 14, C-terminus)) [Example 6]",37.4,
cyclo(YRTCRG[dP]RRYCYQK(FITC′)) (disulfide 4-11; not fully specified (C-terminus)) [Example 15],6,
cyclo(YR[Cit]CRG[dP]RRWCY[Cit]K(Dansyl)) (disulfide 4-11; not fully specified (C-terminus)) [Example 1],122,
cyclo(YRTCRA[dP]RRYCYQK(FITC′)) (disulfide 4-11; not fully specified (C-terminus)) [Example 16],4.2,
cyclo(HHYCRA[dP]FRFCYQK(FITC′)) (disulfide 4-11; not fully specified (C-terminus)) [Example 13],29,
"cyclo(YRKCRG[dP]RRWCY[Cit]Q) (disulfide 4-11; not fully specified (residue 3, C-terminus)) [Example 5]",4.9,
cyclo(HHQCSA[dP]FRYCYQK(FITC′)) (disulfide 4-11; not fully specified (C-terminus)) [Example 11],27.5,
B1,13.4,fold increase in fluorescence (human CXCR4 [4]): ~5 fold
"cyclo(KR[Cit]CRG[dP]RRWCY[Cit]Q) (disulfide 4-11; not fully specified (residue 1, C-terminus)) [Example 3]",16.4,
cyclo(SHYCRA[dP]FRFCYQK(FITC′)) (disulfide 4-11; not fully specified (C-terminus)) [Example 14],30.4,
cyclo(YRTCRG[dP]RR[2Nal]CY[Cit]K(FITC′)) (disulfide 4-11; not fully specified (C-terminus)) [Example 7],0.9,
